Here are results for 1 protein from PMC6823310, “XszenFHal, a novel tryptophan 5-halogenase from Xenorhabdus szentirmaii” (AMB Express, 2019).

Substrate in this series: N[C@@H](Cc1c[nH]c2ccccc12)C(=O)O
Briefly: initial rates of chlorination by UHPLC-UV, Michaelis-Menten fit. Format: biochemical, Xenorhabdus szentirmaii. As to conditions: 20 mM NaCl, 0.05 mM NADH, 0.01 mM FAD, flavin reductase K12Fre 0.1 μM, phosphate pH 7.5, 25 °C.

B1: XszenFHal (FHal16) (Xenorhabdus szentirmaii DSM 16338) (protein)
chain: MINSVLIVGGGTAGWMTAAYLSKAFDKNINITVVESKEVKKIGVGEATFSTVRHYFDYLGLNESEWLPECSGSYKLGIRFENWDGQGNHFYHPFERWEVVKGFPISEWWLSKKLKDQRFDYDTFLTPHLCEAKRSPRRLDGSLFAQSIDKSLGQSTLAEQRAQYPYAYHFDADGVASFLKRYAMNRGVKHIEDDVTHVEIDTNGNIGYLEAKIYGKLRADLYIDCTGFKGLLINKALNEPFISFSDVLKNNRAVALRVPRENENDIEPYTTARTMSNGWRWTIPLYKRNGYGYVYCNKYQSPEEAEMELRKSIPYENAECVANHIRMRIGRSNRSWVKNCVAIGLSSAFVEPLESTGIFFIQHGIEQLVRFFPRSSGNELLIEEYNTRVNRVVDGVKEFLLLHFSLAQRNDTLYWKEWKNVELPKELLKKITLAQDHLLDKETIYPFYHGFEEYSWNTMILGLCSGSLNNKPALSLMTSDEADEMLLQHYMKAENMVNNLPTCYEYLKHIHDLKNKN
notes: N-terminal His tag (modified pET22b(+)), expressed in E. coli BL21-CodonPlus (DE3)-RIPL
For the protein B1, the Km (as a rule, the concentration of substrate that gives half-maximal velocity) worked out at 58.22 µM and the kcat – broadly, the maximal rate divided by the concentration of active sites – came out at 0.074 s⁻¹.
